Assay results as given in US20210070819A1 (INSERM INSTITUT NATIONAL DE LA SANT ET DE LA RECHERCHE M …, published 2021).

Experiments:
[1] = target: T1, biotin-tagged HLA-A*03:01 monomers (immunAware) (human, biotin tag); assay: flow cytometry bead assay: biotinylated HLA-A*03:01 monomer folded with peptide, captured on streptavidin beads, detected with anti-β2-microglobulin BBM.1; 1.2 nM complex (data not shown)
T1 construct: Bought monomers folded around the test peptide; also called HLA-A3; A3

[2] = target: T2, HLA-A*02:01 (human); assay: experimental HLA-A2 peptide binding assay, format not described (data not shown)
T2 construct: also called HLA-A2; A2

binding result [1]	binding result [2]	Binder
binds	–	RLKPSLVGK [SCG5-009193-201]
–	binds	FLSGAVNRL (also called SCG-009186-194) [SCG5-009186-194]
–	binds	YLQGQRLDNV [SCG5186-195]
